According to article PMC8748874, “Structures of the human peroxisomal fatty acid transporter ABCD1 in a lipid environment” (Communications Biology, 2022):

System: T1, Nc1ncnc2c1ncn2[C@@H]1O[C@H](COP(=O)(O)OP(=O)(O)OP(=O)(O)O)[C@@H](O)[C@H]1O
T1 construct: full length, codon-optimized synthetic gene; C-terminal eYFP-Rho1D4 tag cut off with 3C protease; HEK293 Flp-In TREX; homodimer; in DDM/CHS, liposomes or MSP1D1 nanodiscs
Experiment: molybdate-based colorimetric ATPase assay
Assay type: biochemical, Homo sapiens
Conditions: BPL/Chol liposomes and nanodiscs, 10 mM MgCl2, pH 7.5, 37 °C, ATP 0.0625 to 8 mM

## ABCD1 (ALDP) (Homo sapiens)
  Km: about 0.3 mM
